These results are taken from patent US20050079151A1, “Therapeutic agents for apoptosis-related diseases” (priority 1998, published 2005).

The subject of one test is Bcl-2. Briefly: Effect for enhancing Bcl-2 expression (Western blotting). The test is classed as cell-based. The following applies: G401 cells. As for the experimental part: The effect of MK on the expression of the Bcl-2 gene was examined. Six groups were prepared; the untreated group, the cisplatin (100 μM) treated group, the human MK (100 ng/ml) treated group, the human MK (100 ng/ml)+cisplatin (100 μM) group, the mouse MK (100 ng/ml) treated group, and the mouse MK (100 ng/ml)+cisplatin (100 μM) treated group.
G401 cells were seeded on a 3.5 cm-dish and cultured in 10% FBS/DMEM until the cells became almost confluent. The cells were washed twice and cultured in 0.1% FBS/DMEM overnight. Then, human MK or mouse MK (JP-A No. Hei 8-196293) was added to the MK treatment groups at 100 ng/ml and cultured for six hours. Cisplatin was added to the cisplatin treatment group to 100 μM, and cultured for 2 hours. After culturing, the cells were washed with 0.1% FBS/DMEM three times, cultured in 0.1% FBS/DMEM for 10 hours, and washed with PBS three times.
Two hundred microliters of buffer [1% Triton X-100, 150 mM NaCl, 10 mM Tris (pH 7.4), 1.0 mM EGTA, 0.5% NP-40, 1 mM PMSF, 0.1 μg/ml apiotinin, 40 nM Iewpeptin] were added to each dish and kept on ice for 20 min. The cells in each dish were detached by a scraper, and mixed 8 to 10 times using a syringe with a 26-gauge needle. The cells of each dish were centrifuged in a centrifuge tube at 4° C. at 12000 rpm for 30 min. The precipitated proteins were quantified (BCA Kit; PIERCE). The precipitate prepared from each dish (50 μg) was analyzed by Western blotting using anti-Bcl-2 monoclonal antibody (500×) (Dako; Denmark) and anti-mouse HRP antibody (Jackson Immuno Research) (FIG. 6). The band in each lane is numerically shown (FIG. 7).
(Immunoblotting shows a protein as a band on a membrane.)

For test [1], the system named is hippocampal region CA1 neurocytes. Briefly: Apoptosis-inhibitory effect in vivo, transient forebrain ischemia, administration before ischemic damage. Further details: species or system Mongolian gerbil. The following applies: for numbers of surviving nuclei contained in the CA1 region per unit length of CA1: mean±standard deviation, saline 18±25, Sham-op 265±38; for number of nuclei showing apoptosis positive reaction (TUNEL) against the total number of cells: saline 69.7±17.0, Sham-op 0.0±0.0; for numbers of neurocytes in CA1: 2 μg MK, saline 10±10, sham-op 263±31. From the text:
(1) Six to 16 male Mongolian gerbils (6- to 8-week old, body weight: 60 to 80 g) for each group were housed in “HONEY MATIC M-3” (KIMURA MEDICAL INSTRUMENT LTD.), an anesthetic delivery device for Fluothane, and the container was filled with an appropriate amount of inhalation anesthetic “Fluothane” (halothane according to Japanese Phamacopeia). The anesthetized animals were fixed on an operating table equipped with an injection holder (NARISHINGE SCEITIFIC INSTRUMENT LAB.; TYPE SR-5N, No. 97024). After the head was subjected to midline incision, a hole for inserting a syringe of an appropriate size was made by a dental drill at a site 2 mm away from the bregma towards the left eyeball direction. Through this hole, 2 μl of 0.25 mg/ml, 0.5 mg/ml or 1 mg/ml MK solutions (0.5 μg, 1.0 μg, 2.0 μg ) (in physiological saline) were seperately injected into the ventricle with a microsyringe (HAMILTON MICROLITER #701). As control groups, a saline injected group and the sham operated (Sham-op) group were prepared. After injection into the ventricle, the mice were left for 4 min and the operated site was sutured. The chest was subjected to midline incision to expose both right and left common carotid arteries. The both arteries were ligated with two pieces of Sugita brain aneurysm clip (standard type; MIZUHO) to stop blood flow for 5 min, and the blood was circulated again. During ischemic loading, brain temperature and body temperature were maintained constant (37±0.2° C.). Each mouse was distinguished and housed in a nursery cage after coming out of anesthesia to breed, allowing the animals to freely intake water and food. After one week, the mice were fixed while perfusing with saline containing 0.2% heparin (Novo Heparin Injection 100; Japan Hoechet Marion Russell LTD) and 4% paraformaldehyde solution, and beheaded. The brain was excised using scissors, and immersed in 4% paraformaldehyde fixative for one day. The rear portion from 2 mm ahead of the bregma was divided into three using a double-edged razor (Feather). These sections were further fixed for 24 hours. Tissues containing dorsal hippocampus were dehydrated and penetrated, and embedded with paraffin.
A 5 μm section, from 0.5 to 1.0 mm from the tip of the hippocampus or from 1.4 to 1.9 mm behind the sagittal suture was prepared from this paraffin block and observed by the TUNEL method (In situ Apoptosis Detection Kit, TaKaRa). The results are shown in FIG. 8 (×25) and FIG. 9 (×100).
(2) By following the method described in (1), MK solution (0.063 μg, 0.125 μg, 0.25 μg, 0.5 μg, 1 fig, or 2 μg), was injected into the ventricle just before development of ischemic injury to examine protective effects of MK on delayed neuronal death. Seven days after the injury, the CA1 region were stained with hematoxylin-eosine. Micrographs in low magnification (×25) are shown in FIG. 10 (FIG. 10a: saline, FIG. 10b: Sham-op, FIG. 10c: MK 2 μg, FIG. 10d: MK 1 μg, FIG. 10e: MK 0.5 μg, FIG. 10f: MK 0.25 μg), and those in high magnification (×100) in FIG. 11 (FIG. 11a: saline, FIG. 11b: Sham-op, FIG. 11c: MK 2 μg, FIG. 11d: MK 1 vg, FIG. 11e: MK 0.5 vg, FIG. 11f: MK 0.25 μg).
For quantitative evaluation, the numbers of surviving nuclei contained in the CA1 region per unit length of CA1 were obtained (FIG. 12). The values were 18±25/mm(n=15, mean±standard deviation) for the saline administration group and 265±38 /mm (n=23) for the Sham-op group. For the 0.5, 1, or 2 μg MK administration groups, the values were 217±109 (n=7), 228±84 (n=8), and 243±82 (n=10), respectively. The values decreased when MK concentration was low (FIG. 12). There was a significant difference between the saline administrated group and MK administrated (0.5 to 2 μg MK) groups (ANOVA and post-hoc Fisher's PLSD teat, p<0.0001).
Whether the effect of MK administration (2 μg) continues was examined. […]

B1: MK: midkine, a heparin-binding growth and differentiation factor; human MK protein (SEQ ID NO: 3; or recombinant, secreted by yeast) (protein, UniProt P21741 21-143, looked up)
Midkine: VAKKKDKVKKGGPGSECAEWAWGPCTPSSKDCGVGFREGTCGAQTQRIRCRVPCNWKKEFGADCKYKFENWGACDGGTGTKVRQGTLKKARYNAQCQETIRVTKPCTPKTKAKAKAKKGKGKD
B1: the “expression of Bcl-2” value in the test with Bcl-2 (MK 100 ng/ml, no cisplatin) is recorded as “enhanced the expression of Bcl-2”. Besides, in the test on Bcl-2 (data not shown), the “concentration showing the Bcl-2 enhancing effect” value was not below 10 ng/mL. Also, the “nuclei in CA1 region, hematoxylin-eosine, high magnification” value in test [1] (0.25 μg MK into the ventricle just before ischemic injury, seven days after) was “Deteriorated nuclei were observed”; in test [1] (0.5 to 2 μg MK into the ventricle just before ischemic injury, seven days after) it was “survived circle nuclei were observed”. The “numbers of surviving nuclei contained in the CA1 region per unit length of CA1” value is listed as 217±109 /mm in test [1] (0.5 μg MK just before ischemia, seven days after); 228±84 /mm in test [1] (1 μg MK just before ischemia, seven days after); 243±82 /mm in test [1] (2 μg MK just before ischemia, seven days after). Moreover, the “number of nuclei showing apoptosis positive reaction (TUNEL) against the total number of cells” value came to 7.8±19.8 in test [1] (0.5 μg MK just before ligation, seven days after); 11.0±14.7 in test [1] (1 μg MK just before ligation, seven days after); 4.6±12.2 in test [1] (2 μg MK just before ligation, seven days after). Also, the “numbers of neurocytes in CA1” value was 157±60 cells/mm in test [1] (four weeks after ischemia), 219±74 cells/mm in test [1] (one week after ischemia), 185±83 cells/mm in test [1] (three weeks after ischemia) and 152±72 cells/mm in test [1] (two weeks after ischemia). The “TUNEL stained nuclei in hippocampal region CA1” value in test [1] (0.5 to 2 μg MK just before ligation, seven days after) is “Few stained nuclei were observed”. Besides, the “activity against delayed neuronal death” value in test [1] (28 days after the injury) is “showed a significant activity”. Further, the “cells containing TUNEL reaction positive nuclei and atrophied neurocytes in hippocampal region CA1” value in test [1] (MK injected into the ventricle before 5 min ischemia, one week after) is “such neurocytes were not observed”.
